Source: patent US9327008B2, “Cell-permeant peptide-based inhibitor of kinases” (Purdue Research Foundation, priority 2008, dated 2016)

What was measured:
[1] = test system: 43 kinases; test: Specificity profile against battery of 43 kinases (Millipore KinaseProfiler); assay type: biochemical, human
Method: (§1) A commercial radiometric assay service (Millipore, Billerica, Mass.) was used to test the specificity and potency of peptides containing a coupled transduction domain and therapeutic domain, hereinafter “complete peptides”). In these assays, if the kinase is not inhibited by an inhibitor peptide, a positively charged substrate is phosphorylated with a radiolabeled phosphate group from an ATP.
(§2) IC50 values for inhibitor peptides were determined using Millipore's IC50Profiler Express service. The IC50 value was estimated from a 10-point curve of one-half log dilutions. For peptides tested for specificity, the concentration of the peptides that inhibited approximately 95% of MK2 activity was chosen to profile against a battery of kinases related to MK2, cell viability, or human disease from MilliporeKinaseProfiler service. In both assays, compounds were supplied in dimethylsulfoxide (DMSO). Every kinase activity measurement was conducted in duplicate.
(§3) Therapeutic inhibitor peptides were assayed for activity against human kinases related to MK2, cell viability, or human disease. The assays were performed using concentrations of therapeutic inhibitor peptides that yielded 2% to 8% of normal MK2 activity. Error is reported as the standard deviation between 2 samples, and “c” is rat AMPK whereas all other kinases used are human kinases.

[2] = target: T1, IGF-1R (Homo sapiens, UniProt P08069); test: Millipore radiometric kinase activity assay, IGF-1R (h); assay type: biochemical
T1 construct: purchased Millipore (assay service)
Method: as §1
(§4) In a final reaction volume of 25 μL, IGF-1 R (h) (5-10 mU) is incubated with 50 mM Tris pH 7.5, 0.1 mM EGTA, 0.1 mM Na3VO4, 0.1% β-mercaptoethanol, 250 μM […] [SEQ ID NO: 56], 10 mM MnCl2, 10 mM MgAcetate and [γ-^33P-ATP] (specific activity approx. 500 cpm/pmol, concentration as required). The reaction is initiated by the addition of the MgATP mix. After incubation for 40 minutes at room temperature, the reaction is stopped by the addition of 5 μL of a 3% phosphoric acid solution. 10 μL of the reaction is then spotted onto a P30 filtermat and washed three times for 5 minutes in 75 mM phosphoric acid and once in methanol prior to drying and scintillation counting.
as §2, §3

[3] = target: T2, PKG1α (Homo sapiens, UniProt Q13976); test: Millipore radiometric kinase activity assay, PKG1α (h); assay type: biochemical; details: peptide 100 μM
T2 construct: purchased Millipore (radiometric assay service)
T2 sequence (Q13976 1-671): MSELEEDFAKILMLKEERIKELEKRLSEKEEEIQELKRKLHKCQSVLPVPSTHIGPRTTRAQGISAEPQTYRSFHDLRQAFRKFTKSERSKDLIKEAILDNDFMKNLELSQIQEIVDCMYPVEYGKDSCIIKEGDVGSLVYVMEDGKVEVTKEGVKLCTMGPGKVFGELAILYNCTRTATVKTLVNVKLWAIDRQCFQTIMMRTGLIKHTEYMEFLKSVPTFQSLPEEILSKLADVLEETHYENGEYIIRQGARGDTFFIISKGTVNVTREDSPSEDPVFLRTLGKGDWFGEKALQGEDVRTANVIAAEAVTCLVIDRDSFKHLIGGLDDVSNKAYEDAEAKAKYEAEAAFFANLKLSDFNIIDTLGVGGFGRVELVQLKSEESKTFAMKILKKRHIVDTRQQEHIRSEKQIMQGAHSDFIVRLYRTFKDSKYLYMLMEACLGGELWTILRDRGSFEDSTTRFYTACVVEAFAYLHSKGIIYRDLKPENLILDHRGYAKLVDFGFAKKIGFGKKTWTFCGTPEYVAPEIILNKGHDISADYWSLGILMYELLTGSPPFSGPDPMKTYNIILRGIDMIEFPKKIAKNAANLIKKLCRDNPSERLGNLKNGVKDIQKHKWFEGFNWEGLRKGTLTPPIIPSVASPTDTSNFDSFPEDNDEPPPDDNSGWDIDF
Method: as §1
as §4, with “μL, PKG1α” for “μL, IGF-1 R”, “with 8” for “with 50”, “mM MOPS” for “mM Tris”, “pH 7.0, 0.2” for “pH 7.5, 0.1”, “mM EDTA, 10 μM cGMP, 200” for “mM EGTA, 0.1 mM Na3VO4, 0.1% β-mercaptoethanol, 250”, “NO: 62],” for “NO: 56], 10 mM MnCl2,”
IC50 values for inhibitor peptides were determined using Millipore's IC50Profiler Express service. The IC50 value was estimated from a 10-point curve of one-half log dilutions. […]

T1 sequence (P08069 31-1367): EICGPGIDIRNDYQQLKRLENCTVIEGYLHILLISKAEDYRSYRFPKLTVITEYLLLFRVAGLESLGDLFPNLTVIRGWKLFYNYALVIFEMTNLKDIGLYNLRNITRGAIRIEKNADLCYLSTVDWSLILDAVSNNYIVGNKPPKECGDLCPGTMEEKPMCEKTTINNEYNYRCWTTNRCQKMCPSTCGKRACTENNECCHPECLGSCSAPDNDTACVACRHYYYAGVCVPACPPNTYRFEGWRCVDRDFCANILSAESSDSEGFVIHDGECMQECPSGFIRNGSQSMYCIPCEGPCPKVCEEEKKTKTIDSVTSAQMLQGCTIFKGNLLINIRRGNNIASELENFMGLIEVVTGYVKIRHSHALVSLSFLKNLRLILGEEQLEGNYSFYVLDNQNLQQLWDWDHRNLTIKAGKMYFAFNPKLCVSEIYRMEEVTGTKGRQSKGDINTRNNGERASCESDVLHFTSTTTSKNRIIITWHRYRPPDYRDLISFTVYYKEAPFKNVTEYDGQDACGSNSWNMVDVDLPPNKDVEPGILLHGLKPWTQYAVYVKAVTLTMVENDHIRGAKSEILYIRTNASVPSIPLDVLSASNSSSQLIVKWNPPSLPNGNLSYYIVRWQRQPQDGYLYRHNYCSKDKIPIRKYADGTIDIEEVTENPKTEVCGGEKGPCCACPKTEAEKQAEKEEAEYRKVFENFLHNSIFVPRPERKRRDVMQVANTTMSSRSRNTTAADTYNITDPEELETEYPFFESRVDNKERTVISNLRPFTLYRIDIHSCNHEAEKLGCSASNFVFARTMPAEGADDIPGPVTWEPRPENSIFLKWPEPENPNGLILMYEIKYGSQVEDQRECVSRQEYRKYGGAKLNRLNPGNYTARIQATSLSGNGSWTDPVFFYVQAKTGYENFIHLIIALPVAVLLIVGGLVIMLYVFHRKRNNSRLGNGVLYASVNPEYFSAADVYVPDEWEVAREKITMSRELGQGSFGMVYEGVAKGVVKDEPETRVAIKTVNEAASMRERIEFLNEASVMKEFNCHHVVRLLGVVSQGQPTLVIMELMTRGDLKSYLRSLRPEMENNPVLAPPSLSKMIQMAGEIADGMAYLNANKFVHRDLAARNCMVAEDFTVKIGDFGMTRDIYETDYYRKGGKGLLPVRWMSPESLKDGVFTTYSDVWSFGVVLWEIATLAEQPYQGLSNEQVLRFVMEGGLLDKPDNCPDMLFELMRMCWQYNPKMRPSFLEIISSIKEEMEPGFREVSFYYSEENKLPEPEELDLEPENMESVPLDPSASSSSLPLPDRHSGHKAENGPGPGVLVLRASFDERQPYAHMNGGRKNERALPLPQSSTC

Sequence | Percentage of the 43 kinases Tested with less than 20% Activity ([1]; Concentration Tested 100 μM) [%] | IGF-1R Kinase Activity (%) (+SD %) ([2]; peptide 100 μM) | PKG1α Kinase Activity (%) (+SD %) [3] | IGF-1R Kinase Activity (%) (+SD %) ([2]; peptide 30 μM) | Percentage of the 43 kinases Tested with less than 20% Activity ([1]; Concentration Tested 30 μM) [%]
FAKLAARLYRKALARQLGVAA | 37 | – | – | – | –
KAFAKLAARLYRKALARQLGVAA | – | 76 (12) % | 25 (2) % | – | –
WLRRIKAWLRRIKALNRQLGVAA | – | 69 (4) % | 12 (2) % | 227 (12) % | 47
